Entries after “also recorded” stand apart in the source; their conditions may differ.
How the values were obtained:
[1] = Thermostability (storage stability) of luciferase; type: physicochemical, Photinus pyralis; conditions: FIG. 6-8; 10 μg/ml enzyme kept at 0° C., 25° C. and 37° C.
Description: Both purified wild type luciferase and CNBLuc03-06 luciferase (SEQ ID NO: 4) were diluted to 10 μg/ml and aliquoted in three micro-centrifuge tubes for these storage stability studies conducted at different temperatures. The tubes containing wild type luciferase and CNBluc03-06 luciferase (SEQ ID NO: 4) were incubated at three different temperatures, 0° C. (FIG. 6), 25° C. (FIG. 7), and 37° C. (FIG. 8) over time. The assay contained 40 mM Tris-Acetate at pH 7.8, 1 mM MgSO4, 0.1 mM EDTA, 500 μM D-Luciferin, 1 mM ATP, 0% ethanol and 33 mM DTT. The light output was measured every 30 minutes after two initial measurements at time 0 and 10 minutes. For each measurement all the samples were diluted to 2 μg/ml so that 10 μl of each sample could be added to give 20 ng of purified enzyme in each reaction.

[2] = Specific activity of luciferase in the absence of DTT; type: biochemical, Photinus pyralis; conditions: 0 mM DTT, pH 7.8, 1 mM ATP, 500 μM D-Luciferin, three replicates
Description: Dithiothreitol (DTT) is an enzyme stabilizing agent used to reduce disulfide bonds (break the bonds) that are not normally formed under physiological conditions. Both purified wild type luciferase and CNBLuc03-06 luciferase (SEQ ID NO: 4) were diluted to 2 μg/ml in 40 mM Tris Acetate buffer at pH 7.8. The assay contained 40 mM Tris-Acetate at pH 7.8, 1 mM MgSO4, 0.1 mM EDTA, 500 μM D-Luciferin, 1 mM ATP, and 0 mM DTT. The light output was measured over time and three replicate measurements were made for each luciferase. The average value of the highest light output reading obtained over time was used to determine specific activity of each enzyme.

[3] = Stability of CNBLuc03-06 luciferase activity in the presence of HPV chemicals; type: biochemical, Photinus pyralis
Description: (§1) The stability of CNBLuc03-06 luciferase (SEQ ID NO: 4), both in purified form and in cell lysates, in the presence of a range of potential inhibitors was assayed. The basic assay contained 40 mM Tris-Acetate at pH 7.8, 1 mM MgSO4, 0.1 mM EDTA (ethylenediaminetetraacetic acid), 500 μM D-Luciferin and 500 μM ATP. Ethanol, DTT (dithiothreitol) and potential inhibitors were included at the concentrations stated.
This effect was confirmed by repeated experiments. With 20 ng purified CNBLuc03-06 luciferase (SEQ ID NO: 4) and in the presence of 2.5% ethanol, 1 mM DTT and 86 mM chloroform an activation of approximately 50% was measured, compared with the absence of chloroform.
The capacity of a variety HPV chemicals to inhibit or activate both wild type luciferase and CNBLuc03-06 luciferase (SEQ ID NO: 4) activity compared to controls without HPV chemicals was tested. Higher concentrations of chloroform (172 mM), methylene chloride (318 mM) or toluene (2.7 mM) were used. The basic assay contained 20ng of purified CNBLuc03-06, 1 mM DTT and 2.5% ethanol. CNBLuc03-06 luciferase (SEQ ID NO: 4) was exposed to each chemical for less than 5 minutes before measuring the light output.

[4] = Luciferase activity at different pHs; type: biochemical, Photinus pyralis
Description: 20 ng of enzyme was used for each reaction. The pH was maintained at 7.8 by 40 mM Tris-acetate buffer and 33 mM DTT was added to each reaction. Both substrates, MGATP and D-Luciferin were saturated at 1 mM and 500 μM respectively. The values were normalized against the highest RLU (relative light units) at each pH optimum for comparison purpose. CNBLuc03-06 luciferase (SEQ ID NO: 4) has optimum pH of 9, but the high enough activity is retained at lower pHs in which enables us to use this mutant luciferase in case a wide range of pH is required for the assay (between 8–11).

[5] = Quantitative in vitro screening of mutant luciferases with chloroform; type: biochemical, Photinus pyralis; conditions: screening; 68.8 mM chloroform (0.8% vol.), 10% ethanol, 33 mM DTT, cell lysate supernatant
Description: Selected colonies from secondary screening were inoculated and grown in 5 ml LB broth containing 100 μg/ml ampicillin at 30° C. overnight. When the OD660 reached approximately 1, bacterial cells were harvested from 1.5 ml of culture by centrifugation for 3 min at 12,000 rpm (Eppendorf centrifuge model 5415D). Harvested cells were resuspended in 1 ml of 40 mM Tris-Acetate buffer, pH 7.8, and sonicated for 10 seconds using a Branson Sonifer 450, Duty cycle-40 and output control-4. The activity of each luciferase sample, prepared using 10 μl of supernatant from a subsequent centrifugation of sonicated bacterial cell culture, was tested in 200 μl total reaction volume by a Luminometer (Perkin Elmer, model Victor II). Each assay contained 40 mM Tris-Acetate, 1 mM MgSO4, 0.1 mM EDTA (ethylenediaminetetraacetic acid), 33 mM DTT (dithiothreitol), 500 μM D-Luciferin, 10% Ethanol and 500 μM ATP at pH 7.8. Some screening assays also contained 68.8 mM chloroform (0.8% vol.).
Different mutant luciferases were compared quantitatively by determining the percentage (%) inhibition of luciferase activity in the presence of chloroform relative to a control without chloroform. The specific activities of chloroform-tolerant mutants were generally lower as compared to wild type. […] The nucleotide sequence of CNBLuc03-02 is SEQ ID No: 1. The polypeptide sequence of the product of SEQ ID No: 1 is SEQ ID No: 2.

[6] = Luciferase activity in the presence of anionic detergent SDS; type: biochemical, Photinus pyralis; conditions: FIG. 5; 20 ng purified luciferase, 0% ethanol, 33 mM DTT
Description: as §1
(§2) The stability of CNBLuc03-06 luciferase (SEQ ID NO: 4) in the presence of Triton X-100 and SDS was determined using 20 ng of purified luciferase per sample using the basic assay conditions and in the presence of 0% ethanol and 33 mM DTT. The effect of detergents on wild type luciferase was determined previously by W. J. Simpson and J. R. M. Hammond (W. J. Simpson and J. R. M. Hammond, (1991) Journal of Bioluminescence & Chemiluminescence, 6. 97–106, incorporated herein by reference). They reported the anionic detergents inhibit luciferase activity, and cationic detergents and nonionic detergents increase the reaction rate when the concentration of detergent exceeds critical micelle concentration (CMC) value but only up to certain concentrations.
SDS was used for testing the effect of anionic detergents.

[7] = Luciferase activity in the presence of nonionic detergent Triton X-100; type: biochemical, Photinus pyralis; conditions: FIG. 4; Triton X-100 up to 5%, 20 ng purified luciferase, 0% ethanol, 33 mM DTT
Description: as §1, §2

B1: CNBLuc03-06: modified Photinus pyralis luciferase: serine to threonine at 239, aspartic acid to tyrosine at 357, alanine to threonine at 532 (protein, listed as Photinus pyralis)
chain: MEDAKNIKKGPAPFYPLEDGTAGEQLHKAMKRYALVPGTIAFTDAHIEVNITYAEYFEMSVRLAEAMKRYGLNTNHRIVVCSENSLQFFMPVLGALFIGVAVAPANDIYNERELLNSMNISQPTVVFVSKKGLQKILNVQKKLPIIQKIIIMDSKTDYQGFQSMYTFVTSHLPPGFNEYDFVPESFDRDKTIALIMNSSGSTGLPKGVALPHRTACVRFSHARDPIFGNQIIPDTAILTVVPFHHGFGMFTTLGYLICGFAVVLMYRFEEELFLRSLQDYKIQSALLVPTLFSFFAKSTLIDKYDLSNLHEIASGGAPLSKEVGEAVAKRFHLPGIRQGYGLTETTSAILITPEGDYKPGAVGKVVPFFEAKVVDLDTGKTLGVNQRGELCVRGPMIMSGYVNNPEATNALIDKDGWLHSGDIAYWDEDEHFFIVDRLKSLIKYKGYQVAPAELESILLQHPNIFDAGVAGLPDDDAGELPAAVVVLEHGKTMTEKEIVDYVASQVTTAKKFRGGVVFVDEVPKGLTGKLDTRKIREILIKAKKGGKSKL
[1]
  activity retained on incubation over time: retained more activity than wild type luciferase
[2]
  specific activity (highest light output): 9.6±0.4×10^9 RLU/mg enzyme/sec
[3]; 20 ng purified enzyme, 2.5% ethanol, 1 mM DTT, 86 mM chloroform
  activation compared with the absence of chloroform: approximately 50%
[3]; FIG. 3, chloroform 172 mM, 20 ng purified enzyme, 1 mM DTT, 2.5% ethanol
  activation compared to controls, chloroform: approximately 60%
[3]; FIG. 3, methylene chloride 318 mM, 20 ng purified enzyme, 1 mM DTT, 2.5% ethanol
  activation compared to controls, methylene chloride: approximately 80%
[3]; FIG. 3, toluene 2.7 mM, 20 ng purified enzyme, 1 mM DTT, 2.5% ethanol
  activation compared to controls, toluene: about 20%
[3]; cell lysates, 5% ethanol, 33 mM DTT, 0.8% chloroform
  activation compared with the absence of chloroform: about 30%
[4]; FIG. 9, 20 ng enzyme, 33 mM DTT, 1 mM MgATP, 500 μM D-Luciferin
  optimum pH: 9
[4]; up to pH 11
  activity at elevated pH: high activity at elevated pH (up to pH 11)
[5]
  inhibition of luciferase activity in the presence of chloroform relative to a control without chloroform: not only resistant to, but also had the capacity to be activated by chloroform
[6]
  effect of SDS on luciferase activity: inhibited luciferase activity significantly; also recorded: retained much more activity at all concentrations of SDS compared to wild type luciferase
[7]
  effect of Triton X-100 on luciferase activity: activated by the nonionic detergent, Triton X-100, up to final concentration of 1.25%; also recorded: maintained activities above the control at all concentrations of Triton X-100

— patent US7183092B2, “Modified luciferase” (priority 2003, dated 2007)
